Experimental data reported in patent US8703452B2, “Extracellular aldonolactonase” (The Regents of the University of California, priority 2010, dated 2014).

Key:
[1] = target: S. thermophile aldonolactonase 1 (Thermothelomyces thermophilus, UniProt E5LEX3); settings: substrate specificity
Procedure: (§1) Aldonolactonase activity was measured as described by Hestrin (21). The reactions were carried out in triplicate in 96-well microtiter plates. Briefly, 100 μL of 100 mM freshly dissolved sugar lactone was immediately mixed with 100 μL of 10 nM aldonolactonase enzyme buffered in 100 mM sodium acetate pH 5.0 for 1 minute at 25° C. The reaction was quenched by adding 40 μL of alkaline hydroxylamine (2.0 M hydroxylamine hydrochloride, 1.5 M sodium hydroxide) for 1 minute. Twenty microliters of 4.0 M hydrochloric acid was then added to acidify the solution and stabilize the sugar hydroxamate. Color was developed by adding 20 μL of 0.5 M ferric chloride (FeCl3) and the absorbance at 540 nm was measured. For all experiments, control measurements were made on control samples where no enzyme was added. The background hydrolysis was subtracted from the total hydrolysis in the presence of enzyme.

[2] = test system: S. thermophile Aldonolactonase 2 (Spoth1189286); test: Standard gluconolactonase assay with recombinant S. thermophile aldonolactonase 2; format: biochemical, Sporotrichum thermophile; settings: unpurified concentrate, expressed in N. crassa
Procedure: as §1, with “Lactonase activity on gluconolactone was confirmed using the standard gluconolactonase assay (as described in other sections). The protein was not further purified because the affinity purification tag was removed by endogenous proteases in N. crassa. Aldonolactonase” for “Aldonolactonase”, “Hestrin” left out, “Color was developed by adding 20 μL of 0.5 M ferric chloride (FeCl3) and the absorbance at 540 nm was measured.” left out, “enzyme. This typically amounted to less than 10% of the total lactone.” for “enzyme.”

[3] = cited from earlier work
[4] = Aldonolactonase activity of enzyme preparations on glucono-δ-lactone; format: biochemical; settings: glucono-δ-lactone as substrate, 25° C., pH 5.0
Procedure: as §1, with “enzyme. This typically amounted to less than 10% of the total lactone.” for “enzyme.”

[5] = pH profile of S. thermophile aldonolactonase 1; format: biochemical; settings: from pH 3.0 to pH 8.0; 10 nM enzyme, 50 mM glucono-δ-lactone, room temperature
Procedure: FIG. 9 depicts the pH profile of S. thermophile aldonolactonase 1. Reactions were conducted at room temperature for 1 minute with 10 nM aldonolactonase, 50 mM glucono-δ-lactone, and 100 mM buffer. Buffers used included sodium citrate, pH 3.0; sodium acetate, pH 4.0; sodium acetate, pH 5.0; sodium succinate, pH 6.0; HEPES, pH 7.0; and Tris, pH 8.0. Error bars represent the standard deviation of three replicate experiments.

[6] = Stability of aldonolactonase activity; format: physicochemical
Excerpt: Sporotrichum thermophile is a thermophilic fungus isolated from soil and self-heating compost (3). […] During development of the present disclosure, an enzyme involved in the process of cellulose degradation was isolated from S. thermophile. As disclosed herein, an enzyme containing extracellular aldonolactonase activity was purified, identified, and characterized from the thermophilic ascomycete S. thermophile. The S. thermophile aldonolactonase hydrolyzes hexose δ-lactones over a broad range of pH values. […] (the growth condition for production of the enzyme). The expression profile and kinetic parameters of the S. thermophile aldonolactonase were determined on different substrates. The results disclosed herein provide insight into how S. thermophile utilizes aldonolactonase in nutrient acquisition, especially from hexose δ-lactones and how this enzyme can be utilized for biofuel production.
After 48 hours of growth on complex media containing cellulose, S. thermophile mycelia and residual cellulose were removed from the culture by filtering over 0.2 micron polyethersulfone (PES) filters. The filtered culture broth was then concentrated and buffer exchanged using tangential flow filtration with a 10 kDa molecular weight cut-off (MWCO) PES membrane (Millipore, Billerica, Mass.) into 25 mM 4-(2-hydroxyethyl)-1-piperazineethanesulfonic acid (HEPES) buffer, pH 7.4. […]

[7] = substrate: O=C1O[C@H](CO)[C@@H](O)[C@H](O)[C@H]1O; test: purified protein, by the assay type
[8] = substrate: O=C1O[C@H](CO)[C@@H](O[C@@H]2O[C@H](CO)[C@@H](O)[C@H](O)[C@H]2O)[C@H](O)[C@H]1O; test: purified protein, by the assay type; settings: other: steady-state kinetic constants; substrate of S. thermophile aldonolactonase 1; pH 5.0; 25.0 °C
Procedure: (§2) Aldonolactonase activity was measured as described by Hestrin (21). The reactions were carried out in triplicate in 96-well microtiter plates. Briefly, 100 μL of 100 mM freshly dissolved sugar lactone was immediately mixed with 100 μL of 10 nM aldonolactonase enzyme buffered in 100 mM sodium acetate pH 5.0 for 1 minute at 25° C. The reaction was quenched by adding 40 μL of alkaline hydroxylamine (2.0 M hydroxylamine hydrochloride, 1.5 M sodium hydroxide) for 1 minute. Twenty microliters of 4.0 M hydrochloric acid was then added to acidify the solution and stabilize the sugar hydroxamate. Color was developed by adding 20 μL of 0.5 M ferric chloride (FeCl3) and the absorbance at 540 nm was measured. For all experiments, control measurements were made on control samples where no enzyme was added. The background hydrolysis was subtracted from the total hydrolysis in the presence of enzyme. This typically amounted to less than 10% of the total lactone.

[9] = substrate: O=C1O[C@H](CO)[C@@H](O[C@@H]2O[C@H](CO)[C@H](O)[C@H](O)[C@H]2O)[C@H](O)[C@H]1O; test: purified protein, by the assay type; settings: other: steady-state kinetic constants; substrate of S. thermophile aldonolactonase 1; pH 5.0; 25.0 °C
Procedure: as §2

[10] = other: steady-state kinetic constants, substrate of S. thermophile aldonolactonase 1, pH 5.0, 25.0 °C

With `O=C1O[C@H](CO)[C@H](O)[C@H]1O` [Xylonolactone] the “hydrolysis by S. thermophile aldonolactonase 1” value (“hydrolysis” for short) [1] was “not hydrolyzed”.

With `O=C1O[C@H](CO)[C@@H](O)[C@@H]1O` [arabinolactone] the “hydrolysis” value [1] was “not hydrolyzed”.

For `O=C1O[C@H](CO)[C@@H](O[C@@H]2O[C@H](CO)[C@@H](O)[C@H](O)[C@H]2O)[C@H](O)[C@H]1O` [D-Cellobiono-δ-lactone], the “hydrolysis” value [1] was “completely hydrolyze”.

For `O=C1O[C@H](CO)[C@@H](O)[C@H](O)[C@H]1O` [D-Glucono-δ-lactone], the “hydrolysis” value [1] is listed as “completely hydrolyze”, the “lactonase activity on gluconolactone” value [2] is listed as “confirmed” and the “equilibrium constant between glucono-δ-lactone and gluconic acid” value ([3]; favoring gluconic acid) is listed as 7.7. The half-life ([3]; in water at room temperature and pH 5.0) was “approximately 1 hour”.

With `O=C1O[C@H](CO)[C@@H](O[C@@H]2O[C@H](CO)[C@H](O)[C@H](O)[C@H]2O)[C@H](O)[C@H]1O` [D-Lactono-δ-lactone] the “hydrolysis” value [1] was “completely hydrolyze”.

B1: S. thermophile aldonolactonase 1: extracellular aldonolactonase purified from S. thermophile culture broth, encoded by Spoth11109678 (SEQ ID NO: 1) (protein)
chain: MRTSYGVAFALSAGFRLATAAPVCGGGSASDLLWVTTYPAGEGAQGKLLTLKLDGSKLVVAESDTCGPYPSWLTQAGDVLYCVDEAWGGDHGTLHSLKINDDHSFTNLSQHETVGGPVSTVIYGKDGLGLAVADYAGGGIDTFNIADPAAIKLIKSLVYPAPTDGLPDPQNSARPHEAILDPTGEFLVFPDLGADQIRVLKVDKETLEYVEKPSYTDFDRGTGPRHGAFFKSGDKTFFYLVGELSNLLQGFSVAYNDDDSLTFTRIHNSTTHGDDKPLPEDTAAAELWIAPGSNFLTLSSRFESSLEYTVANGTKVPSDPLITFSIDKETGALTHVQSAPAGGINPRHFSFNSDGTRVASALQSDGRVVVFERDPSTGKIGKATAEGDVEGMPNFATFKQ
modifications: Sporotrichum thermophile; extracellular aldonolactonase 1
For B1, the “activity relative to that reported for lactonases isolated from other filamentous fungi” value [4] was “approximately 20 fold”, the change in activity [5] was 3 fold and the stability ([6]; 50° C. (growth condition for production of the enzyme)) was “stable for several days”. For the same molecule, the “storage stability of aldonolactonase activity” value ([6]; stored at −80° C.) was “stable for several months”.

B2: S. thermophile aldonolactonase 1 (Thermothelomyces thermophilus) (protein)
chain: APVCGGGSASDLLWVTTYPAGEGAQGKLLTLKLDGSKLEVVAESDTCGPYPSWLTQAGDVLYCVDEAWGGDHGTLHSLKINDDHSFTNLSQHETVGGPVSTVIYGKDGLGLAVADYAGGGIDTFNIADPAAIKLIKSLVYPAPTDGLPDPQNSARPHEAILDPTGEFLVFPDLGADQIRVLKVDKETLEYVEKPSYTDFDRGTGPRHGAFFKSGDKTFFYLVGELSNLLQGFSVAYNDDDSLTFTRIHNSTTHGDDKPLPEDTAAAELWIAPGSNFLTLSSRFESSLEYTVANGTKVPSDPLITFSIDKETGALTHVQSAPAGGINPRHFSFNSDGTRVASALQSDGRVVVFERDPSTGKIGKATAEGDVEGMPNFATFKQ
B2 showed a kcat/Km ([7]; other: 25° C. and pH 5.0) of 600000 M⁻¹ s⁻¹, a Km [7, 10] of 20.3 mM and a kcat [7, 10] of 11700 s⁻¹. It also gave a kcat/Km [7, 10] of 580000 M⁻¹ s⁻¹, a Km [8] of 21.6 mM and a kcat [8] of 29100 s⁻¹. For the same molecule, the kcat/Km [8] was 1.35e+06 ± 120000 M⁻¹ s⁻¹, the Km [9] was 5.9 mM and the kcat [9] was 7400 s⁻¹. The kcat/Km [9] was 1.25e+06 ± 520000 M⁻¹ s⁻¹.
